Source: IntAct's records for PubMed 29039417

B1: BBSome complex member BBS5 (Homo sapiens), Q8N3I7 (parent)
chain: MSVLDALWEDRDVRFDLSAQQMKTRPGEVLIDCLDSIEDTKGNNGDRGRLLVTNLRILWHSLALSRVNVSVGYNCILNITTRTANSKLRGQTEALYILTKCNSTRFEFIFTNLVPGSPRLFTSVMAVHRAYETSKMYRDFKLRSALIQNKQLRLLPQEHVYDKINGVWNLSSDQGNLGTFFITNVRIVWHANMNDSFNVSIPYLQIRSIKIRDSKFGLALVIESSQQSGGYVLGFKIDPVEKLQESVKEINSLHKVYSASPIFGVDYEMEEKPQPLEALTVEQIQDDVEIDSDGHTDAFVAYFADGNKQQDREPVFSEELGLAIEKLKDGFTLQGLWEVMS
partner: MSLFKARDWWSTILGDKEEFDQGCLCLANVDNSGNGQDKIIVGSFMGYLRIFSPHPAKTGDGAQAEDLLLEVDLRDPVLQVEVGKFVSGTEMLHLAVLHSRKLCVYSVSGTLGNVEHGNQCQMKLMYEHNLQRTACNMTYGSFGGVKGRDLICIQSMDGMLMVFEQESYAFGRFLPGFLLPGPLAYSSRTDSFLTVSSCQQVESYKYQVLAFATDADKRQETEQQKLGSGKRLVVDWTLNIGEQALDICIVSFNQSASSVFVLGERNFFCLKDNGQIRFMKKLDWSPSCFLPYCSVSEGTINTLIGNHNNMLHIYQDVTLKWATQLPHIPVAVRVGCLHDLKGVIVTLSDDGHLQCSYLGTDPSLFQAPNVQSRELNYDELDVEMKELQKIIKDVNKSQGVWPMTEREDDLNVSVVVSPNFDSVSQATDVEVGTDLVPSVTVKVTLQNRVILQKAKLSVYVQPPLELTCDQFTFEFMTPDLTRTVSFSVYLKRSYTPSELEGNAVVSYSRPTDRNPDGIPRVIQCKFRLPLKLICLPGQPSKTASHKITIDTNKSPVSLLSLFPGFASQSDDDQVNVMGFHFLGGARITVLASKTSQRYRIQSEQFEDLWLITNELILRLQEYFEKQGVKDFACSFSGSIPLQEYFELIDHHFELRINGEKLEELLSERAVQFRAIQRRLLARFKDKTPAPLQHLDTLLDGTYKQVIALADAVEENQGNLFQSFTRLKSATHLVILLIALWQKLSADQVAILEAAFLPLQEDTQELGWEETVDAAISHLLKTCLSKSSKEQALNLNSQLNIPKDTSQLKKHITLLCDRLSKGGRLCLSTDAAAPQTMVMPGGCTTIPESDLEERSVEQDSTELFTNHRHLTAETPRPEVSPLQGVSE
B2: Isoform 2 of Bardet-Biedl syndrome 7 protein (Homo sapiens), Q8IWZ6-2 (parent)
chain: MDLILNRMDYLQVGVTSQKTMKLIPASRHRATQKVVIGDHDGVVMCFGMKKGEAAAVFKTLPGPKIARLELGGVINTPQEKIFIAAASEIRGFTKRGKQFLSFETNLTESIKAMHISGSDLFLSASYIYNHYCDCKDQHYYLSGDKINDVICLPVERLSRITPVLACQDRVLRVLQGSDVMYAVEVPGPPTVLALHNGNGGDSGEDLLFGTSDGKLALIQITTSKPVRKWEIQNEKKRGGILCIDSFDIVGDGVKDLLVGRDDGMVEVYSFDNANEPVLRFDQMLSESVTSIQGGCVGKDSYDEIVVSTYSGWVTGLTTEPIHKESGPGEELKINQEMQNKISSLRNELEHLQYKVLQERENYQQSSQSSKAKSAVPSFGINDKFTLNKDDASYSLILEVQTAIDNVLIQSDVPIDLLDVDKNSAVVSFSSCDSESNDNFLLATYRCQADTTRLELKIRSIEGQYGTLQAYVTPRIQPKTCQVRQYHIKPLSLHQRTHFIDHDRPMNTLTLTGQFSFAEVHSWVVFCLPEVPEKPPAGECVTFYFQNTFLDTQLESTYRKGEGVFKSDNISTISILKDVLSKEATKRKINLNISYEINEVSVKHTLKLIHPKLEYQLLLAKKVQLIDALKELQIHEGNTNFLIPEYHCILEEADHLQEEYKKQPAHLERLYG
partner: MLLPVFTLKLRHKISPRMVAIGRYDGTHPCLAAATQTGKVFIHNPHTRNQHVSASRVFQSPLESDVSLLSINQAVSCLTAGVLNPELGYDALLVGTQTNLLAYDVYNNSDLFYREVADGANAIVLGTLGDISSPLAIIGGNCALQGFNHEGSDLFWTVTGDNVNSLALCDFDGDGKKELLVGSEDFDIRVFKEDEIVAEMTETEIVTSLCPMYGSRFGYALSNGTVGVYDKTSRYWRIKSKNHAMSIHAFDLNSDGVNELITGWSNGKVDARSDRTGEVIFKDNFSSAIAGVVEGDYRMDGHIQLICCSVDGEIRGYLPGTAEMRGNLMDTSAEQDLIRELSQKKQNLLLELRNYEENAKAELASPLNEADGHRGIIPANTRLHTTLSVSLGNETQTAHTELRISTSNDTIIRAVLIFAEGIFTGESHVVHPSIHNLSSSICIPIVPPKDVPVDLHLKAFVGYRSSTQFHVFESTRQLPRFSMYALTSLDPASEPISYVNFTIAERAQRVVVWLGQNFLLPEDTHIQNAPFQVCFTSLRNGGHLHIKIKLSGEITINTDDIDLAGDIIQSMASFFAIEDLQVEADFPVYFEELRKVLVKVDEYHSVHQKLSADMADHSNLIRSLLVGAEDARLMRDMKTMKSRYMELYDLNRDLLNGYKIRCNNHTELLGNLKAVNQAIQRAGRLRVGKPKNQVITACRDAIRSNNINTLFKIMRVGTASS

Variants of: B1
Settings: with pthb1_human BBS9, Q3SYG4

Row | Variant | effect of a mutation on the interaction
1 | I324A | with no effect
2 | G330E | with no effect
3 | G330A | with no effect
4 | M340E | with no effect
5 | M340A | with no effect
6 | M340K | with no effect
7 | F331S | disrupting interaction strength
8 | S341E | with no effect
9 | S341K | with no effect
10 | T332A | with no effect
11 | T332K | with no effect
12 | T332E | with no effect
13 | G321K | with no effect
14 | L320K | with no effect
15 | L320E | with no effect
16 | L322A | with no effect
17 | D329K | with no effect
18 | W337K | with no effect
19 | W337E | with no effect
20 | W337A | with no effect
21 | E338K | with no effect
22 | G335K | with no effect
23 | G335A | with no effect
24 | L327A | with no effect
25 | L336A | with no effect
26 | L333E | with no effect
27 | K326E | with no effect
28 | E325K | with no effect
29 | E325A | with no effect

Next, values leading:

Row | effect of a mutation on the interaction | Variant
30 | with no effect | I324E
31 | with no effect | I324K
32 | with no effect | G330K
33 | with no effect | F331K
34 | disrupting interaction strength | F331E
35 | with no effect | F331A
36 | with no effect | S341A
37 | with no effect | G321E
38 | with no effect | G321A
39 | with no effect | L322E
40 | disrupting interaction strength | L322K
41 | with no effect | K328E
42 | with no effect | K328A
43 | with no effect | D329A
44 | with no effect | D329E
45 | with no effect | E338A

Row | effect of a mutation on the interaction | Variant
46 | with no effect | G335E
47 | with no effect | L327K
48 | with no effect | L327E
49 | with no effect | L336K
50 | with no effect | L336E
51 | with no effect | L333A
52 | with no effect | L333K
53 | with no effect | K326A
54 | with no effect | Q334A
55 | with no effect | Q334E
56 | with no effect | Q334K
57 | with no effect | V339K
58 | with no effect | V339A
59 | with no effect | V339E
60 | with no effect | A323K
61 | disrupting interaction strength | A323E

Variants of: B2
Settings: with bbs2_human BBS2, Q9BXC9

Row | Variant | effect of a mutation on the interaction
62 | N335E | with no effect
63 | N335K | with no effect
64 | L349E | with no effect
65 | S326K | with no effect
66 | S326E | with no effect
67 | S343A | with no effect
68 | S343K | with no effect
69 | L357A | with no effect
70 | Q339K | with no effect
71 | Q339A | with no effect
72 | Q339E | with no effect
73 | S367K | with no effect
74 | S367E | with no effect
75 | S367A | with no effect
76 | I334K | with no effect
77 | L332E | with no effect
78 | L332K | with no effect
79 | L332A | with no effect
80 | M338E | with no effect
81 | Q336E | with no effect
82 | S369K | with no effect
83 | Y363A | with no effect
84 | E359K | with no effect
85 | N340A | with no effect
86 | N340E | with no effect
87 | N340K | with no effect

Row | Variant | effect of a mutation on the interaction
88 | G327E | with no effect
89 | K341E | with no effect
90 | S366E | with no effect
91 | S344A | with no effect
92 | E331K | with no effect
93 | E331A | with no effect
94 | Q358K | with no effect
95 | Q358A | with no effect
96 | R346E | with no effect
97 | R346A | with no effect
98 | S370A | with no effect
99 | K333E | with no effect
100 | L352E | with no effect
101 | E337A | with no effect
102 | E348K | with no effect
103 | N347K | with no effect
104 | N347A | with no effect
105 | V356K | with no effect
106 | V356E | with no effect
107 | Q353K | with no effect
108 | L345K | with no effect
109 | P328A | with no effect
110 | R360E | with no effect
111 | R360A | with no effect
112 | Q365A | with no effect
113 | Q364K | with no effect

Next, values leading:

Row | effect of a mutation on the interaction | Variant
114 | with no effect | N335A
115 | with no effect | L349A
116 | with no effect | L349K
117 | with no effect | S326A
118 | with no effect | S343E
119 | with no effect | L357E
120 | with no effect | L357K
121 | with no effect | H351E
122 | with no effect | H351K
123 | with no effect | H351A
124 | with no effect | K355E
125 | with no effect | K355A
126 | with no effect | E330A
127 | with no effect | E330K
128 | with no effect | I334A
129 | with no effect | I334E
130 | with no effect | M338K
131 | with no effect | M338A
132 | with no effect | Q336A
133 | with no effect | Q336K
134 | with no effect | S369E
135 | with no effect | S369A
136 | with no effect | Y363E
137 | with no effect | Y363K

Row | effect of a mutation on the interaction | Variant
138 | with no effect | E359A
139 | with no effect | N362A
140 | with no effect | N362K
141 | with no effect | N362E
142 | with no effect | G327K
143 | with no effect | G327A
144 | with no effect | E361A
145 | with no effect | E361K
146 | with no effect | K341A
147 | with no effect | S366K
148 | with no effect | S366A
149 | with no effect | S344E
150 | with no effect | S344K
151 | with no effect | I342A
152 | with no effect | I342E
153 | with no effect | I342K
154 | with no effect | G329K
155 | with no effect | G329E
156 | with no effect | G329A
157 | with no effect | Q358E
158 | with no effect | R346K
159 | with no effect | S370E
160 | with no effect | K333A
161 | with no effect | L352A

Row | effect of a mutation on the interaction | Variant
162 | with no effect | L352K
163 | with no effect | E337K
164 | with no effect | E348A
165 | with no effect | N347E
166 | disrupting interaction strength | V356A
167 | with no effect | E350A
168 | with no effect | E350K
169 | with no effect | Q368A
170 | with no effect | Q368E
171 | with no effect | Q368K
172 | with no effect | Q353A
173 | with no effect | Q353E
174 | with no effect | L345E
175 | with no effect | L345A
176 | with no effect | P328K
177 | with no effect | P328E
178 | with no effect | R360K
179 | with no effect | Q365E
180 | with no effect | Q365K
181 | with no effect | Q364E
182 | with no effect | Q364A
183 | with no effect | Y354A
184 | with no effect | Y354E
185 | with no effect | Y354K
